Source: article PMC4288174 (Nucleic Acids Research, 2014)

Biological target: Recombinant hemagglutinin-tagged full-length CSB (human, UniProt Q03468 1-1493)
Test: pull-down; ΔN-SNM1A (500 ng) with or without HA-CSB (500 ng) and α-HA magnetic beads; 20 mM HEPES pH 7.9, 4 mM MgCl2, 0.05 mM ATP, 40 μg/ml BSA, 1 mM DTT, 4°C, 2 h; silver stain
Settings: both partners purified

Chain of Recombinant hemagglutinin-tagged full-length CSB (Q03468 whole entry): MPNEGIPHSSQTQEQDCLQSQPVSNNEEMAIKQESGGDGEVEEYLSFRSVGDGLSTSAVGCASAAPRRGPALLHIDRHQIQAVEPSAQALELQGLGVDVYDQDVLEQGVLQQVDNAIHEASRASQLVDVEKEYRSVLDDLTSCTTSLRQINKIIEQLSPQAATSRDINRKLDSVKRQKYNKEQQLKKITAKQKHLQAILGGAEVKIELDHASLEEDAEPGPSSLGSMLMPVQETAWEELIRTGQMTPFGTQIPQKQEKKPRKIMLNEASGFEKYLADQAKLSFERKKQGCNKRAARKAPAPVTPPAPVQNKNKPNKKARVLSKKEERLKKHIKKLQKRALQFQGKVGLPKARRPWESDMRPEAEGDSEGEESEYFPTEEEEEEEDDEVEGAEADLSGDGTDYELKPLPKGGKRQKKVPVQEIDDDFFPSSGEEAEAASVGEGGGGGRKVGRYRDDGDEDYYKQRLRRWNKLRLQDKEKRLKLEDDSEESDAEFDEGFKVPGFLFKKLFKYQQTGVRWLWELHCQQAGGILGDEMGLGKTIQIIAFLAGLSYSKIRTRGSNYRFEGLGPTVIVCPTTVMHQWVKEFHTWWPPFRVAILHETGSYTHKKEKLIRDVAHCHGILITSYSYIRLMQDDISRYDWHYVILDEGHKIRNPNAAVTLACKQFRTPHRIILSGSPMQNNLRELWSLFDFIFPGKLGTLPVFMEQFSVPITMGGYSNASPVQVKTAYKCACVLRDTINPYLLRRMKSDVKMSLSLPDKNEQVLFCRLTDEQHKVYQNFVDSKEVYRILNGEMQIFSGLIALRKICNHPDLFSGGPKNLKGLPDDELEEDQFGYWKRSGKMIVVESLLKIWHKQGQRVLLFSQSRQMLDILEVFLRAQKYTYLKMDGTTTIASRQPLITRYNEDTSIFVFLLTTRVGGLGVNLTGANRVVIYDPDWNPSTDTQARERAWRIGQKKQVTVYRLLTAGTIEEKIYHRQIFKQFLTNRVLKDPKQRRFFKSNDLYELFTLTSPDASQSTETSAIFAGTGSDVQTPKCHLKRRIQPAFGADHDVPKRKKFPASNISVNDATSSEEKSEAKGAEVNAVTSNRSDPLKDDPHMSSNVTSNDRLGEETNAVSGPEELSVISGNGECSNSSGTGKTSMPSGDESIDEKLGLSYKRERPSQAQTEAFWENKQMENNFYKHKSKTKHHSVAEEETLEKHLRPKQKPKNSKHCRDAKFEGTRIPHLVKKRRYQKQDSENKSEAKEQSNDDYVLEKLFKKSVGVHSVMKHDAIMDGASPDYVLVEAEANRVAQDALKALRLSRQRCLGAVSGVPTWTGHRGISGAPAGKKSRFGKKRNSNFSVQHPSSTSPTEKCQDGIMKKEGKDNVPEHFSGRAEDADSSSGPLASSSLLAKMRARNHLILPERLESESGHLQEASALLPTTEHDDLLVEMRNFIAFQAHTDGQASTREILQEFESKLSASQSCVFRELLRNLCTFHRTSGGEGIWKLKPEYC

B1: SNM1A nuclease fragment consisting of residues 608 to 1040 (domain or fragment, human, UniProt Q6PJP8 608-1040, looked up)
chain: SDLEFDASTLHESQLSVELSSERSQRQKKRCRKSNSLQEGACQKRSDHLINTESEAVNLSKVKVFTKSAHGGLQRGNKKIPESSNVGGSRKKTCPFYKKIPGTGFTVDAFQYGVVEGCTAYFLTHFHSDHYAGLSKHFTFPVYCSEITGNLLKNKLHVQEQYIHPLPLDTECIVNGVKVVLLDANHCPGAVMILFYLPNGTVILHTGDFRADPSMERSLLADQKVHMLYLDTTYCSPEYTFPSQQEVIRFAINTAFEAVTLNPHALVVCGTYSIGKEKVFLAIADVLGSKVGMSQEKYKTLQCLNIPEINSLITTDMCSSLVHLLPMMQINFKGLQSHLKKCGGKYNQILAFRPTGWTHSNKFTRIADVIPQTKGNISIYGIPYSEHSSYLEMKRFVQWLKPQKIIPTVNVGTWKSRSTMEKYFREWKLEAGY
binding result: binds
